Experiment: label from the status in PepcDB records

| Sequence | protein production |
| --- | --- |
| REMGCAVTVADSNSAQLDKLAQQTGCQTISPADVVSDGFQDYTVVVTSPGWRPDSPLLVAAQSAGLEVIGDVELVYRLDRAEVFGPKRTWMVVTGTNGKTTTTAMLAEIMQHSGARAAAVGNIGVSVADAVRTQPRIDVLVAELSSFQL | failed |
| MSQATAKVNREVQAFLQDLKGKTIDHVFFVACGGSSAIMYPSKYVFDRESKSINSDLYSANEFIQRNPVQLGEKSLVILCSHSGNTPETVKAAAFARGKGALTIAMTFKPESPLAQEAQYVAQYDWGDEALAINTNYGVLYQIVFGTLQVLENNTKFEQAIEGLDQLQAVYEKALKQEADNAKQFAKAHEKESIIYTMASGANYGVAYSYSICILMEMQWIHSHAIHAGEYFHGPFEIIDESVPFIILLGLDETRPLEERALTFSKKYGKKLTVLDAASYDFTAIDDSVKGYLAPLVLNRVLRSYADELAEERNHPLSHRRYMWKVEY | not failed |
| MENRIELYDSKARYGVISRGLHWAMALAFAWIYSTTSAHYLLADSALDKFLWPTHKQVGLLLMALLLVRVLWSLLNRHRRPPSLNLAATLGHGLLYAGMFAIPFLGLLRQYGSGRAFSAFGLPVMNGFDGPKIQWMTELGNNFHSLLGWTLLVLIVGHVAALILHCIKGQGHILRRMAGSARSA | failed |
| MVIRVYIASSSGSTAIKKKQQDVLGFLEANKIGFEEKDIAANEENRKWMRENVPENSRPATGYPLPPQIFNESQYRGDYDAFFEARENNAVYAFLGLTAPPGSKEAEV | not failed |
| MRGRIMSTFTTISSDKLARLIGTANAPVLIDVRTEEDFAADRRLIPGSIRLSHENVPDWGAAFAGRSVIVSCLRGAKLAQGTAAWLRQLGVQAETLDGGFEGWKEAKLPLLDTRKLPPRDAKGRTVWVTRARPKVDRIACPWLIRRFVDPNAVFLYVAPSEVVAVGERFNAAPFDIENVFWSHRGELCTFDVMIEEFGIATPALLRLATLVRGADTARPDLAPEAPGLLAASLGLSRMYDDDLEQLEAGLLLYDAFYRWCRDATAETHNWPTNKVKA | failed |
| MSHAIQIREAHFPGRAPIDAYGNGGFRFADMSHRGSIICIPSGIYGIDMTGPVPTQEDISRVLEESDQIEVLLIGTGVELLRLPEELRVLLWEKRISSDTMSTGAAVRTFNVLLAEDRAVAALLFAVE | not failed |
| MASEWNVAAERHSALHYLYRLGDAVLIAVCGIAMGALYFHDGIRSAAPVNGFLTMLCALGALLIFPAFGIYESWRGRSRAVLGLRIAAAWTLVFISGLLGAFLIHQIGAVSRVWSMGWFIGTGVMLALSRVVMFRMLANVRQQGINAKRVLIFGYGPLGREMYDRVQHFRDAGYRVVGVYDEESDAIPYDVTPLRQIEEVSGFVRDHGVREIWLTLPMAACRDLSGVVRQFRNEMIDIRWVPDVSSVELLGHRFSEFMGLPVIDLNSPPVSGITGVVKASFDRVFSLGVLVCLSPLLLLIAAMVKLSSPGPVLFRQQRLGIDGQPFNVYKFRTMRQHQDGGGVTQAVRGDPRVTRVGAFLRRTSLDELPQFINVLRGEMSVVGPRPHAMEHNELYKELIDRYMLRHRVKPGITGWAQINGLRGQTDTVEKMRKRIEFDIYYIQHWSFQLDLRIILRTALHGWTGTTAY | failed |
| MGMAASFARASSVIMPAPPRRYFSRQRFHNFRRLAIIGSKATRSGDTAAMTDGKHLDALTAAYAAKRPEEVAALYDRWSRTYDADMSAAGYRHPTICLALLTRHLPRGAAPLLDAGAGTGLIGEWLDISGYPEVEALDISQGMLDQAARKGVYSALHCLALGGALPFADDAYAGIVSAGVFTSGHVGVEGLNELIRICRPGGVIVLTVKNTLWEQGFAARIAELEAQGVVTRAEETRPYVSMPGEADTVPSRGLALRVN | failed |
| MSLGVTMHDVAKAAGVSAITVSRVLNQPQQVSEQLREKVMQAVDALAYVPSRSASTLASAKSRTVLVLIPSLANTVFLETLTGIETVLDAAGYQMLIGNSHYDAGQELQLLRAYLQHRPDGVLITGLSHAEPFERILSQHALPVVYMMDLADDGRCCVGFSQEDAGAAITRHLLSRGKRRIGFLGAQLDERVMKRLDGYRAALDAADCRDAGLEWLDPQPSSMQMGADMLDRALAERPDCDALFCCNDDLAIGALARSQQLGIAVPERLAIAGFNDLQPAAWCTPPLTTVATPRRDIGVHAAKALLQLIDGEEPASRRADLGFRLMLRRSSEGHHHHHH | not failed |
| MSLRAKLIWPILVFITAIFVASKGYTSYTAYQSSKHELVEQTRKLINNVSYSIKDALTTKNKRKAQTILADLIEQPNVSRVKLYDRANELFVLLEGSGESAPVPNQNERSKLDALGYALSAKFLYVLEPIIHEGHVIGSIRVTLSYIPIINAQHSFLKDAGVLLLILAAGGIIFYITIDRIILRPLLDLNGAIQDVTFGNASHVQIRHHSKDELGEVIHAFNRMMTKLRKREKQRQHSLATLEQKRAFSEEVIESIQYALVITDNLGTIIHSNAATQHIFQKTPEALENANIRDLIKTKMPNELSQILSRCLECDDIHLQNIDNEQQLSLTTRRLSNHGYLLFAIQDITEIEEAMNRQRVAGRVFEASQDGLIVLNHKGVITMVNPAVTKLVGLEIDQLVGQSFIQTIRWRKLQEMMPSIIESIENYGVWQGEVIEQNHLGLLVPMFARVNRIVKCENNGFYDLVIILTDLSNAKEMERLEYLAHHDALTGLANRSKFHLELEDLVQRSGYQRDEFAVLYLDLDGFKEINDTYGHDAGDEVLKRVADRLTSATRHSDLIARLSGDEFVMLVNPANQKVVTRIAEQLLESICAPIEYKGNELKVGVSIGVKLVGVNERDATRILKSADTAMYQAKKAGKGQAILMGCELQETV | failed |
| MQKFFQRIWQWIQQLFAPLVGGPGPGTKSLQELPPLSDTDYEFLFNQLLEGIAHGWHEGRILKFFQQLDHRCRPKQWLDWLDRFQTTVLASPSPNLVLAARMMRLGELAQSFPQIAPIGDKSQRIGRELYARQSPPQMDTVWEYDGPDLVSIDQAQGQMETFTFDELVQRLPQDAALATHFAGFLGIESTDPQVILRALMEKFAIPEEMLTEALNHGGESSSAPVDSLVEDQGTASALAQEELWPLVDPVTIDNSQFENNQEPHTAEDWLNLGIQQAQRGELETAIASWGEAISLNPQMTSAWQNRGSALGVMGKLEEALANFDEALAQNPDDAEVWLSRGLLLEAMERKEEAIPSYEKALTLEPTLPEAQERLEELQGLLSQD | failed |
| MTRAQPEPVQVVKQRRDAALRALVSGVPYITYLGIQFDRRGDELTAVLPFDEKLIGNPMLPAIHGGVTAAFLEVASIIELSWSVLWHEMEQGRLDPDQIEARLPRLPKTIDFTVDYLRSGLPRDAYARARVNRSGRRYASVHVEAWQDNRLRPFAQATGHFLMPARNDLEHHHHHH | not failed |
| MLYIFTPTFNRGYRLSYLYDSLCNQTNKNFIWLIVDDGSEDSTKEIVSNYIKENKVSIVYLYKRNGGKHSAYNLAMRYMQPSDYHVCVDSDDWLLEDAVEIIFKDLESLTLSNRYVGLVYPRYSLNQGNNWLNPKILEVNIPDLKYKYHLKIETCIVINNAYLVDFEFPCFEGENFLSEEIMYIYLSKKGYFCPQNRKIYCFDYLEDGLTSNIFKLWRKNFKGTIFSLENSYMYVMSFPNIFDRWWSAIKIKMNIQALKMTTLGVIPTLKSEEAGWKILLGFSYLWKVARFKKSELEHHHHHH | not failed |
| MKLERQKLLAKVAYLYYMEGKSQSEIANELGIYRTTISRMLAKAREEGLVRIEISDFNPEIFQLESYFKSKYHLKDIEIVSSRKDSDTSEIEKDLAHVAAAMIRKKIKENDKVGIAWGRTLSKVVEAMRPHPVSQVSFVPLAGGPSHINARYHVNTLVYEMSRRFQGSCTFINATLVQENANLAKGILTSKYFEGLMDNWEKLDVAIVGVGGKPKSNEQQWLDLLNQDDFQCLDEEAAVGEITCRFFNHSGDPVNQHLAKRTIGITLEQLQKVPNRIAVAHGNYKAAALLAVLKKGYINHLVTDFSTALNILRLDKDTFVDTIYQKS | not failed |
| MIVLALDVYEGERAIKIAKSVKDYISMIKVNWPLILGSGVDIIRRLKEETGVEIIADLKLADIPNTNRLIARKVFGAGADYVIVHTFVGRDSVMAVKELGEIIMVVEMSHPGALEFINPLTDRFIEVANEIEPFGVIAPGTRPERIGYIRDRLKEGIKILAPGIGAQGGKAKDAVKAGADYIIVGRAIYNAPNPREAAKAIYDEIRGV | not failed |
| MSRSFFAVLRDGKRYADKWPHHSVVAAMAESRIIPITRKAISWTPGIAVLNAALTWQFMPQEQLAPGLMLSLIMLSLPLQGLYWLGWRSRQPLKPMLRNWYKELRDKLRKQGVECQPQGEKGPEYMDLAIILRKALETLPPEEH | failed |
| MRRLQREIRTYDEEQLKQVREELTTYDLMTRNALLQTAHDLRAKVEQEAVPEGEQATTYLKAVVDDRRHELSVFLPATQASAALENVRRHLVNQILSIGGKAKKLETERCAAERHLKRPTVEVVQREHDAHLRRLRQWQEVQSRFQTWHTYEQAYARWPDLAAAFDSGPTEAATRVATELHKRTLATMQEQDRWREFLRQATEQEHQRQLTPPEDDLPEDDLEEDTWAAAESSEPSGSLFSRLGHTLSRLMAPPGPDEVPSAATAPRETDGWDDVQPQIAPDPRSTVPGLWDDADDLTPVSPVAPARPAPSPPVYDAAAVPALDIDFSAAPRRSRTPAEQMPDPFARAARVRSARRTTTPLVPVPQQLDAAEMPAPRPARTPPGRPATAGNVAPPSAPRTARPPSPTLADFDLWDDEEDMPFGPPATPAPAAASVPQMVPTPRAAARPTPRPVSSPGPSPVPVSPASASVSHAAPWEEPAAGRPAPAPSGVSRRGATRLALPSEQLLDPLPNGARNTVQMDLDAERRGDMINETLRQFGLQAKVVDLARGPTVTRYEIEPAPGEKISRIASLSNDLARALAVGGVRVEAPVPGKSVIGLEVPNAEREPVTFHQATANPAFKNTRAKLPIILGKSIDGSMMVGDLAKMPHLLVAGSTGSGKSVCVNTLITSLLYRYLPTELRFVMIDPKMVELTPYDGIPHLVRPVVTNPADAAGVLLGAVAHMERRYKMMSQVGAKNLEQFNAKMRAVGEVELPHLVIIIDELADLMITSPKEVESAIMRLAQMARATGMHLILATQRPSVDILTSLIKVNIPARIAFAVSSSHDSRTILDTTGAERLTGMGDMLFYQPGLVKPLRLQGPYISEAESARITDELRRMMFDDDFIEAYGADFEGMISSSGPGGDRSQLDFSDPLLRQAALVCIEEGQGSVSRLQRRLSVGHARAGKLMDLLEAMNIVGPHQGSKPREVLIHEADLPEYFGK | failed |
| MTTPRPEYPRPHFDRSHSWLTLNGTWDFRADPAEAYSADASDGYDRAITVPFAWETPASGIAEHWLRTAWYRRTFTVPADWAGQRVVLHFGAVHHAATVWVNGTEVAHHEGGYTPFAADVTDALGDGEHQLTVRVHAPADKRDIAHGKQRSMPRDDYDGVCFTPSSGIWQSVWLEARPATHLAALRLRPNDDLTGITVEAVVHGPAADRAELRLRVRDEDTAVTATLDPDGRLATELPLSAPRLWSPEDPHLYHVDAELTSADGTDRVAAYTGLRTVTVDGESLYLNGRRLFVRGVLDQGYWPETGITAPDDAALRRDIELAAEAGYNLVRKHLKLEDPRFAHHADTLGMLLWAEPASPGRFSPASTAAFAEQIEPMVERDGNSPAIVIWGLYNEEWGLDWDIPGDPAKQRATADAYDRLKALDPTRPVVDNSGWTHVKTDLLDWHYYDESAASWATTVADLLSGERDDFPVKLGPDFVVRKKLAVPGQPLRGLPNLNSEYGGGFTGLDRAWHLRWQTQELRRHDRLAGYVYTELYDIEHESAGLLDFGRGAKDLAGVDPAHANAPTTLVLDVTPVAPGRDLLTTGPDFTVDVHVSHHGDDPVAGTVHTTWTPVYARTPDAPGDAVPGCRAEAKPYVLGAAVTVPAALPDGWTSGRLHLALVVDGTVAARTALDVDTRTDPYIGDDPQARPTA | failed |
| MSKNNTLSMSPNFFVSGGVLLAIFTLIHLLYAGLIRPAAEVAMAEKGTEALTAFSVIFKDVEQQVCISLMLFCLFLMLYKLWRLIDEEEIYSRDLLESYDKSEALDVDAALNDLESSAYKETPAYSTWINCIRRFKNTKNVQHAADTIESSVDNIAIQLESGNNMIRYIIWAIPSIGFVGTVRGIGSALAQADKALDGDIAGMTASLGVAFNSTLVALFISLILMLFMHLLNSRQDKMVIRTQESCEKHLLSHLHS | failed |

From a protein production outcome set (Wang et al. 2014)
